PMC3479641 (Structure (London, England : 1993), 2012)
Each block holds one binder with its values, some of them ahead of it.

Biological target: T1, Cas5d from B. halodurans, His6-tagged, co-expressed with Csd1, Csd2 and pre-crRNA (B. halodurans, UniProt Q9KFY3 1-236)
T1 sequence: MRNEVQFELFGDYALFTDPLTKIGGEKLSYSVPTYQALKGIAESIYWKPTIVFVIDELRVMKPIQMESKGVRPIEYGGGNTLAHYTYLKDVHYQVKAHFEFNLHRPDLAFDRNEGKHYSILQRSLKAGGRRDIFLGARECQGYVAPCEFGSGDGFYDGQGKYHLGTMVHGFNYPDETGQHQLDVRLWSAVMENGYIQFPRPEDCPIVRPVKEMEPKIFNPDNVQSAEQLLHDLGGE
Assay: SEC

stoichiometry N: ~1 copies in the complex (with two copies of Cas5d and six copies of Csd2)
B1: Csd1 from B. halodurans, co-expressed with Cas5d, Csd2 and pre-crRNA (natural protein, UniProt Q9KFY2 1-627, looked up)
chain: MSWLLHLYETYEANLDQVGKTVKKGEDREYTLLPISHTTQNAHIEVTLDEDGDFLRAKALTKESTLIPCTEEAASRSGSKVAPYPLHDKLSYVAGDFVKYGGKIKNQDDAPFDTYIKNLGEWANSPYATEKVKCIYTYLKKGRLIEDLVDAGVLKLDENQQLIEKWEKRYEELLGEKPAIFSSGATDQASAFVRFNVFHPESIDDVWKDKEMFDSFISFYNDKLGEEDICFVTGNRLPSTERHANKIRHAADKAKLISANDNSGFTFRGRFKTSREAVGISYEVSQKAHNALKWLIHRQSKSIDDRVFLVWSNDNSLVPNPDEDAVDIMKHANRELERDPDTGQIFAGEVKKAIGGYRSDLNYQPEVHILVLDSATTGRMAVLYYRSLNKELYLNRLEAWHDSCAWEHRYRRDEKEFISFYGAPATKDIAFAAYGPRASEKVIKDLMERMLPCIVDGRRVPKDIVRSAFQRASNPVSMERWEWEKTLSITCALIRKMHIEQKEEWGVPLDKSSTDRSYLFGRLLAVADVLERGALGKDETRATNAIRYMNSYSKNPGRTWKTIQESLQPYQAKLGTKATYLSKLVDEIGDQFEPGDFNNNPLTEQYLLGFYSQRRELYKKKEEETNQ

stoichiometry N: ~6 copies in the complex (with two copies of Cas5d and one copy of Csd1)
B2: Csd2 from B. halodurans, Strep-II-tagged, co-expressed with Cas5d, Csd1 and pre-crRNA (natural protein, UniProt Q9KFY1 1-283, looked up)
chain: MTILDHKIDFAVILSVTKANPNGDPLNGNRPRQNYDGHGEISDVAIKRKIRNRLLDMEEPIFVQSDDRKADSFKSLRDRADSNPELAKMLKAKNASVDEFAKIACQEWMDVRSFGQVFAFKGSNLSVGVRGPVSIHTATSIDPIDIVSTQITKSVNSVTGDKRSSDTMGMKHRVDFGVYVFKGSINTQLAEKTGFTNEDAEKIKRALITLFENDSSSARPDGSMEVHKVYWWEHSSKLGQYSSAKVHRSLKIESKTDTPKSFDDYAVELYELDGLGVEVIDGQ
